Fewer inactive variants are shown than the library holds.
Experiments:
biotinyl-Phe-oxazolone = experiment: self-aminoacylation, catalytic enhancement (BFO) (fold over background); higher = more active; k-Seq, kA / k0A0; sequences stand for … in GGGAAUGGAUCCACAUCUACGAAUUC…UUCACUGCAGACUUGACGAAGCUG
Summary of the method: (§1)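 Mutagenized RNA pools with a 21-nt variable region (0.43 μM) reacted with each biotinyl-aminoacyl-oxazolone at 2–1250 μM. Reactions ran in 50 μL HEPES/NaCl/KCl/MgCl2/CaCl2 buffer with 5% acetonitrile, pH 6.9–7.0, for 90 minutes at room temperature. Streptavidin-captured RNA was quantified by triplicate qPCR and Illumina sequencing, and per-sequence fraction reacted was fit to a pseudo-first-order model with 1000 bootstraps. Catalytic enhancement is median kA divided by the uncatalyzed rate, the low-activity peak of a bimodal Gaussian fit.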

biotinyl-Ile-oxazolone = experiment: self-aminoacylation, catalytic enhancement (BIO) (fold over background); higher = more active; k-Seq, kA / k0A0; sequences stand for … in GGGAAUGGAUCCACAUCUACGAAUUC…UUCACUGCAGACUUGACGAAGCUG
Summary of the method: as §1

biotinyl-Met-oxazolone = experiment: self-aminoacylation, catalytic enhancement (BMO) (fold over background); higher = more active; k-Seq, kA / k0A0; sequences stand for … in GGGAAUGGAUCCACAUCUACGAAUUC…UUCACUGCAGACUUGACGAAGCUG
Summary of the method: as §1

biotinyl-Val-oxazolone = experiment: self-aminoacylation, catalytic enhancement (BVO) (fold over background); higher = more active; k-Seq, kA / k0A0; sequences stand for … in GGGAAUGGAUCCACAUCUACGAAUUC…UUCACUGCAGACUUGACGAAGCUG
Summary of the method: as §1

biotinyl-Leu-oxazolone = experiment: self-aminoacylation, catalytic enhancement (BLO) (fold over background); higher = more active; k-Seq, kA / k0A0; sequences stand for … in GGGAAUGGAUCCACAUCUACGAAUUC…UUCACUGCAGACUUGACGAAGCUG
Summary of the method: as §1

biotinyl-Trp-oxazolone = experiment: self-aminoacylation, catalytic enhancement (BWO) (fold over background); higher = more active; k-Seq, kA / k0A0; sequences stand for … in GGGAAUGGAUCCACAUCUACGAAUUC…UUCACUGCAGACUUGACGAAGCUG
Summary of the method: as §1

CCACACUUCAAGAAAUCGGCC [Fam1B.1 aminoacylation ribozyme variant]
self-aminoacylation (biotinyl-Phe-oxazolone): 3.48 | self-aminoacylation (biotinyl-Ile-oxazolone): 1.96 | self-aminoacylation (biotinyl-Met-oxazolone): 1.97 | self-aminoacylation (biotinyl-Val-oxazolone): 2.16 | self-aminoacylation (biotinyl-Leu-oxazolone): 1.78 | self-aminoacylation (biotinyl-Trp-oxazolone): 3.06

CCACACUUCAAGAAAUCGUUC [Fam1B.1 aminoacylation ribozyme variant]
self-aminoacylation (biotinyl-Phe-oxazolone): 0.735 | self-aminoacylation (biotinyl-Ile-oxazolone): 0.472 | self-aminoacylation (biotinyl-Met-oxazolone): 0.482 | self-aminoacylation (biotinyl-Val-oxazolone): 0.602 | self-aminoacylation (biotinyl-Leu-oxazolone): 0.529 | self-aminoacylation (biotinyl-Trp-oxazolone): 0.399

CCACACUUCAAGAACUCGGUC [Fam1B.1 aminoacylation ribozyme variant]
self-aminoacylation (biotinyl-Phe-oxazolone): 0.548 | self-aminoacylation (biotinyl-Ile-oxazolone): 0.836 | self-aminoacylation (biotinyl-Met-oxazolone): 0.696 | self-aminoacylation (biotinyl-Val-oxazolone): 1.01 | self-aminoacylation (biotinyl-Leu-oxazolone): 1.01 | self-aminoacylation (biotinyl-Trp-oxazolone): 0.586

CCACACUUCAAGCAAAAGGUC [Fam1B.1 aminoacylation ribozyme variant]
self-aminoacylation (biotinyl-Phe-oxazolone): 1.05 | self-aminoacylation (biotinyl-Ile-oxazolone): 0.598 | self-aminoacylation (biotinyl-Met-oxazolone): 0.434 | self-aminoacylation (biotinyl-Val-oxazolone): 0.721 | self-aminoacylation (biotinyl-Leu-oxazolone): 0.524 | self-aminoacylation (biotinyl-Trp-oxazolone): 0.598

CCACACUUCAAGCAAACGCUC [Fam1B.1 aminoacylation ribozyme variant]
self-aminoacylation (biotinyl-Phe-oxazolone): 0.677 | self-aminoacylation (biotinyl-Ile-oxazolone): 0.956 | self-aminoacylation (biotinyl-Met-oxazolone): 1.41 | self-aminoacylation (biotinyl-Val-oxazolone): 0.912 | self-aminoacylation (biotinyl-Leu-oxazolone): 1.01 | self-aminoacylation (biotinyl-Trp-oxazolone): 1.37

CCACACUUCAAGCAACCGAUC [Fam1B.1 aminoacylation ribozyme variant]
self-aminoacylation (biotinyl-Phe-oxazolone): 1.05 | self-aminoacylation (biotinyl-Ile-oxazolone): 0.665 | self-aminoacylation (biotinyl-Met-oxazolone): 0.559 | self-aminoacylation (biotinyl-Val-oxazolone): 0.684 | self-aminoacylation (biotinyl-Leu-oxazolone): 0.45 | self-aminoacylation (biotinyl-Trp-oxazolone): 0.75

CCACACUUCAAGCAACCGGUC [Fam1B.1 aminoacylation ribozyme variant]
self-aminoacylation (biotinyl-Phe-oxazolone): 1.31 | self-aminoacylation (biotinyl-Ile-oxazolone): 0.933 | self-aminoacylation (biotinyl-Met-oxazolone): 0.783 | self-aminoacylation (biotinyl-Val-oxazolone): 1.01 | self-aminoacylation (biotinyl-Leu-oxazolone): 0.721 | self-aminoacylation (biotinyl-Trp-oxazolone): 0.935

CCACACUUCAAGCAACGGGUC [Fam1B.1 aminoacylation ribozyme variant]
self-aminoacylation (biotinyl-Phe-oxazolone): 0.777 | self-aminoacylation (biotinyl-Ile-oxazolone): 0.624 | self-aminoacylation (biotinyl-Met-oxazolone): 0.626 | self-aminoacylation (biotinyl-Val-oxazolone): 0.81 | self-aminoacylation (biotinyl-Leu-oxazolone): 0.569 | self-aminoacylation (biotinyl-Trp-oxazolone): 0.464

CCACACUUCAAGCAACUGGUC [Fam1B.1 aminoacylation ribozyme variant]
self-aminoacylation (biotinyl-Phe-oxazolone): 0.699 | self-aminoacylation (biotinyl-Ile-oxazolone): 0.57 | self-aminoacylation (biotinyl-Met-oxazolone): 0.52 | self-aminoacylation (biotinyl-Val-oxazolone): 0.616 | self-aminoacylation (biotinyl-Leu-oxazolone): 0.505 | self-aminoacylation (biotinyl-Trp-oxazolone): 0.338

CCACACUUCAAGCAAGCGGCC [Fam1B.1 aminoacylation ribozyme variant]
self-aminoacylation (biotinyl-Phe-oxazolone): 0.898 | self-aminoacylation (biotinyl-Ile-oxazolone): 2.38 | self-aminoacylation (biotinyl-Met-oxazolone): 2.63 | self-aminoacylation (biotinyl-Val-oxazolone): 2.96 | self-aminoacylation (biotinyl-Leu-oxazolone): 3.28 | self-aminoacylation (biotinyl-Trp-oxazolone): 1.46

CCACACUUCAAGCAAGCGGUC [Fam1B.1 aminoacylation ribozyme variant]
self-aminoacylation (biotinyl-Phe-oxazolone): 0.769 | self-aminoacylation (biotinyl-Ile-oxazolone): 0.87 | self-aminoacylation (biotinyl-Met-oxazolone): 0.791 | self-aminoacylation (biotinyl-Val-oxazolone): 0.961 | self-aminoacylation (biotinyl-Leu-oxazolone): 0.785 | self-aminoacylation (biotinyl-Trp-oxazolone): 0.62

CCACACUUCAAGCAAUAGCUC [Fam1B.1 aminoacylation ribozyme variant]
self-aminoacylation (biotinyl-Phe-oxazolone): 0.859 | self-aminoacylation (biotinyl-Ile-oxazolone): 0.691 | self-aminoacylation (biotinyl-Met-oxazolone): 0.708 | self-aminoacylation (biotinyl-Val-oxazolone): 0.816 | self-aminoacylation (biotinyl-Leu-oxazolone): 0.941 | self-aminoacylation (biotinyl-Trp-oxazolone): 0.427

CCACACUUCAAGCAAUCACUC [Fam1B.1 aminoacylation ribozyme variant]
self-aminoacylation (biotinyl-Phe-oxazolone): 0.957 | self-aminoacylation (biotinyl-Ile-oxazolone): 0.591 | self-aminoacylation (biotinyl-Met-oxazolone): 0.509 | self-aminoacylation (biotinyl-Val-oxazolone): 0.669 | self-aminoacylation (biotinyl-Leu-oxazolone): 0.43 | self-aminoacylation (biotinyl-Trp-oxazolone): 0.564

CCACACUUCAAGCAAUCCGUU [Fam1B.1 aminoacylation ribozyme variant]
self-aminoacylation (biotinyl-Phe-oxazolone): 0.872 | self-aminoacylation (biotinyl-Ile-oxazolone): 1.4 | self-aminoacylation (biotinyl-Met-oxazolone): 1.31 | self-aminoacylation (biotinyl-Val-oxazolone): 1.27 | self-aminoacylation (biotinyl-Leu-oxazolone): 1.27 | self-aminoacylation (biotinyl-Trp-oxazolone): 1.45

CCACACUUCAAGCAAUCGAAC [Fam1B.1 aminoacylation ribozyme variant]
self-aminoacylation (biotinyl-Phe-oxazolone): 0.953 | self-aminoacylation (biotinyl-Ile-oxazolone): 0.557 | self-aminoacylation (biotinyl-Met-oxazolone): 0.402 | self-aminoacylation (biotinyl-Val-oxazolone): 0.76 | self-aminoacylation (biotinyl-Leu-oxazolone): 0.41 | self-aminoacylation (biotinyl-Trp-oxazolone): 0.578

CCACACUUCAAGCAAUCGCUC [Fam1B.1 aminoacylation ribozyme variant]
self-aminoacylation (biotinyl-Phe-oxazolone): 1.2 | self-aminoacylation (biotinyl-Ile-oxazolone): 1.33 | self-aminoacylation (biotinyl-Met-oxazolone): 1.3 | self-aminoacylation (biotinyl-Val-oxazolone): 1.44 | self-aminoacylation (biotinyl-Leu-oxazolone): 1.27 | self-aminoacylation (biotinyl-Trp-oxazolone): 1.29

CCACACUUCAAGCAAUCGGAG [Fam1B.1 aminoacylation ribozyme variant]
self-aminoacylation (biotinyl-Phe-oxazolone): 0.817 | self-aminoacylation (biotinyl-Ile-oxazolone): 0.874 | self-aminoacylation (biotinyl-Met-oxazolone): 0.743 | self-aminoacylation (biotinyl-Val-oxazolone): 1.16 | self-aminoacylation (biotinyl-Leu-oxazolone): 0.591 | self-aminoacylation (biotinyl-Trp-oxazolone): 1.03

CCACACUUCAAGCAAUCGUAC [Fam1B.1 aminoacylation ribozyme variant]
self-aminoacylation (biotinyl-Phe-oxazolone): 1.29 | self-aminoacylation (biotinyl-Ile-oxazolone): 0.473 | self-aminoacylation (biotinyl-Met-oxazolone): 0.351 | self-aminoacylation (biotinyl-Val-oxazolone): 0.669 | self-aminoacylation (biotinyl-Leu-oxazolone): 0.58 | self-aminoacylation (biotinyl-Trp-oxazolone): 0.546

CCACACUUCAAGCAAUCUCUC [Fam1B.1 aminoacylation ribozyme variant]
self-aminoacylation (biotinyl-Phe-oxazolone): 0.826 | self-aminoacylation (biotinyl-Ile-oxazolone): 0.61 | self-aminoacylation (biotinyl-Met-oxazolone): 0.514 | self-aminoacylation (biotinyl-Val-oxazolone): 0.669 | self-aminoacylation (biotinyl-Leu-oxazolone): 0.385 | self-aminoacylation (biotinyl-Trp-oxazolone): 0.383

CCACACUUCAAGCAAUCUGGC [Fam1B.1 aminoacylation ribozyme variant]
self-aminoacylation (biotinyl-Phe-oxazolone): 0.94 | self-aminoacylation (biotinyl-Ile-oxazolone): 0.851 | self-aminoacylation (biotinyl-Met-oxazolone): 0.71 | self-aminoacylation (biotinyl-Val-oxazolone): 0.861 | self-aminoacylation (biotinyl-Leu-oxazolone): 0.804 | self-aminoacylation (biotinyl-Trp-oxazolone): 0.834

CCACACUUCAAGCAAUGGGUA [Fam1B.1 aminoacylation ribozyme variant]
self-aminoacylation (biotinyl-Phe-oxazolone): 0.907 | self-aminoacylation (biotinyl-Ile-oxazolone): 1.35 | self-aminoacylation (biotinyl-Met-oxazolone): 1.39 | self-aminoacylation (biotinyl-Val-oxazolone): 1.4 | self-aminoacylation (biotinyl-Leu-oxazolone): 1.31 | self-aminoacylation (biotinyl-Trp-oxazolone): 1.35

CCACACUUCAAGCAAUGGGUC [Fam1B.1 aminoacylation ribozyme variant]
self-aminoacylation (biotinyl-Phe-oxazolone): 0.841 | self-aminoacylation (biotinyl-Ile-oxazolone): 0.78 | self-aminoacylation (biotinyl-Met-oxazolone): 0.677 | self-aminoacylation (biotinyl-Val-oxazolone): 0.793 | self-aminoacylation (biotinyl-Leu-oxazolone): 0.677 | self-aminoacylation (biotinyl-Trp-oxazolone): 0.627

CCACACUUCAAGCAAUGGUUC [Fam1B.1 aminoacylation ribozyme variant]
self-aminoacylation (biotinyl-Phe-oxazolone): 0.776 | self-aminoacylation (biotinyl-Ile-oxazolone): 0.619 | self-aminoacylation (biotinyl-Met-oxazolone): 0.61 | self-aminoacylation (biotinyl-Val-oxazolone): 0.574 | self-aminoacylation (biotinyl-Leu-oxazolone): 0.596 | self-aminoacylation (biotinyl-Trp-oxazolone): 0.678

CCACACUUCAAGCAAUUGGGC [Fam1B.1 aminoacylation ribozyme variant]
self-aminoacylation (biotinyl-Phe-oxazolone): 1 | self-aminoacylation (biotinyl-Ile-oxazolone): 1.79 | self-aminoacylation (biotinyl-Met-oxazolone): 2.12 | self-aminoacylation (biotinyl-Val-oxazolone): 1.98 | self-aminoacylation (biotinyl-Leu-oxazolone): 2.16 | self-aminoacylation (biotinyl-Trp-oxazolone): 2.98

CCACACUUCAAGCACGCGGUC [Fam1B.1 aminoacylation ribozyme variant]
self-aminoacylation (biotinyl-Phe-oxazolone): 0.928 | self-aminoacylation (biotinyl-Ile-oxazolone): 1.76 | self-aminoacylation (biotinyl-Met-oxazolone): 2.3 | self-aminoacylation (biotinyl-Val-oxazolone): 2.1 | self-aminoacylation (biotinyl-Leu-oxazolone): 1.54 | self-aminoacylation (biotinyl-Trp-oxazolone): 1.91

— the supplement of paper PMC9233669
